Patent US20250339564A1 (ACADEMISCH ZIEKENHUIS LEIDEN H O D N LUMC, published 2025)

Biological target: T1, Epithelial Cell Adhesion Molecule (EpCAM) (human, UniProt P16422 24-314)
T1 construct: whole, on cells; Target is endogenous EpCAM in patient tumor tissue: in vivo targeting for m1, FFPE sections for the IHC antibodies
T1 sequence (looked up): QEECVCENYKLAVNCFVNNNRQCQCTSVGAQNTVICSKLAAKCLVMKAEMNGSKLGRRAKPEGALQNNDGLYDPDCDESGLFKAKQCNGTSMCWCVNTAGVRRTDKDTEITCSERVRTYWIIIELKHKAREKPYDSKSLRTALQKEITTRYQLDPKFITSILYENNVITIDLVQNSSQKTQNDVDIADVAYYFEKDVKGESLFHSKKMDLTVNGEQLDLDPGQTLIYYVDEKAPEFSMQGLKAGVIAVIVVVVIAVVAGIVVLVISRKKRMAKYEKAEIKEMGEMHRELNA
Assay: NIR fluorescence microscopy (Axio scan) of metastatic lymph node sections after IV dosing, overlaid with EpCAM IHC

B1: VB5-845D-800CW (Fab, V domains shown)
VH: EVQLQQSGPGLVQPGGSVRISCAASGYTFTAYGMNWVRQAPGKGLEWMGWINTYTGESTYADSFKGRFEFSLDTHNSSAYLQIQSLREEDTAVYYCARFAIQGDYWGQGTLVTVSS
VL: DIQMTQSPSSLSASVGDRVTITCKSTKSLLHSNGITYLYWYQQKPGSAPKLLIYQMSHLASGVPSRFSSSGSGTDFTLTISSLQPEDFATYYCAQNLEIPRTFGQGTKVEIKR
modifications: IRDye 800CW conjugated by N-hydroxysuccinimide ester chemistry to primary amines (sites and chain not stated)
  binding result: binds
